The source of these data is US7422883B2, “Map kinase integrin-binding domain” (Inter-K Pty Limited, priority 2000, dated 2008).

Test [1] deals with T1, ERK2 (Mus musculus, UniProt P63085).
T1 construct: GST (glutathione-S-transferase); made in house
Kind of test: ELISA of ERK2 binding to biotinylated integrin cytoplasmic domain peptides. The following applies: for binding of non-phosphorylated ERK2 to peptide: over a range of concentrations of ERK2, FIG. 18; for binding of peptide to ERK2: ERK2 (1 μm), FIG. 35C; for binding of ERK2 to integrin subunit peptides: corrected for non-specific binding, FIG. 34; for binding of ERK2 to peptide: ERK2 cleaved from GST-ERK2 by thrombin, FIG. 23. On the procedure: Peptide fragments corresponding to regions of the cytoplasmic tail domain of the β6 subunit were screened in an enzyme-linked immunosorbent assay (ELISA) for binding with ERK2. The 52 amino acid long β6 cytoplasmic tail is shown in FIG. 16 as are the amino acid sequences for the cytoplasmic domains of the β1 to β3 subunits. In particular, four synthetic peptides designated fragment 1 to fragment 4 were prepared and biotinylated at the N-terminal end of each, respectively (Auspep Pty Ltd, Melbourne Australia).
(§1) Overlapping biotinylated fragments 1 to 4 were coated onto streptavidin coated polystyrene plates (Pierce, Rockford Ill. USA, Cat No. 15125) and the ELISA performed substantially according to manufacturers instructions. Briefly, wells are washed with 3×200 μl of wash buffer (TBS, 0.1% BSA, 0.05% Tween 20 or SuperBlock™ blocking buffer in TBS, Pierce, Prod. No. 37535) prior to addition of biotinylated peptides (100 μl) and incubation for 1 hr at room temperature to allow for capture of the peptides on the plate. Following another washing step, peptides were overlayed with GST-ERK, ERK (or JNK-1) alone at a volume of 100 μl per well, and the plates incubated for a further 1 hr at room temperature before removal of any unbound ERK by further washing.
Binding of ERK to the peptides is detected using 100 μl anti-ERK1/2 mAb SC1647 (Santa Cruz) as the primary antibody at a dilution of 1:700 (isotype matched antibody IgG2b is used as a control). This is followed by another washing step and addition of 100 μl rabbit anti-mouse antibody (Biorad) conjugated to alkaline phosphatase at a concentration of 1:1000 for 30 minutes again at room temperature. A […] of detection reagent (alkaline phosphatase detection kit-Biorad) is then introduced into each well after a final washing step and allowed to react for 15-30 minutes at room temperature in the dark before absorbance is measured at 405 nm. All dilutions of peptides, MAP kinase and antibodies were performed using the wash buffer. GST-ERK is a fusion protein consisting of ERK coupled to glutathione-S-transferase and purified from host cells transfected with pGEX vector.
To further localise the binding domain on the cytoplasmic tail of the β6 subunit, progressively shorter peptides from the region of the β6 cytoplasmic tail corresponding to peptide fragment 2 were synthesised, biotinylated and the capacity to associate or otherwise bind to ERK2 assessed as described above. The binding of GST.ERK2 to a 15 mer test peptide (seq. 4) having the amino acid sequence RSKAKWQTGTNPLYR (SEQ ID NO: 7) and a 10 mer test peptide having the sequence RSKAKWQTGT (SEQ ID NO: 21) is shown in FIG. 20 compared to fragment 2 over a range of concentrations of the peptides. […] 4 peptide compared to fragment 2 was found. Binding of ERK2 to the seq. 3 peptide was substantially less than that observed for seq. 4.
Binding of ERK2 to the seq.4 peptide (RSKAKWQTGTNPLYR) (SEQ ID NO: 7) was compared with peptides corresponding to regions of the cytoplasmic domain of integrin subunits β1, β2, β3 and β5. The amino acid sequences for those peptides is shown below:
To evaluate this, cell lysates containing equal protein loads were prepared from SW480 wild-type cells and SW480 cells transfected with either vector alone (mock transfectants), wild type β6 or the β6 deletion mutant Δ746-764 (lacking the sequence EAERSKAKWQTGTNPLYRG (SEQ ID NO: 26), Cone et al, 1994). The lysates were immunoprecipitated with mAbs R6G9 (anti-β6), P1F6 (anti-β5) or murine IgG control antibody (mlgG). […] To determine whether β5 can bind ERK2 in vitro, a 15-mer peptide fragment derived from the β5 cytoplasmic domain corresponding to the ERK binding domain on β6 was tested for its ability to bind ERK2 in an ELISA.

The target in test [2] is T2, JNK-1 (Homo sapiens, UniProt P45983).
T2 construct: purchased Santa Cruz
In words: ELISA of JNK-1 binding to β6 cytoplasmic tail peptide. The following applies: JNK-1 0.05-1.5 μm/100 μl; FIG. 24. On the procedure: as §1
Briefly, 0.05-1.5 μm/100 μl of JNK-1 (Santa Cruz) was aliquoted into wells of a 96 well culture place containing increasing concentrations of the β6 cytoplasmic domain tail peptide used in Example 3. For comparison purposes, non-phosphorylated GST-ERK2 (0.05-1.5 μm/100 μl) was aliquoted into wells containing β6 cytoplasmic tail peptide or peptide fragments 1 or 2, respectively. Binding of JNK-1 was detected using mouse anti-JNK-1 mAb SC 474-G (Santa Cruz) and HRP-conjugated goat anti-mouse antibody.
In general terms: An ELISA detects its analyte on a solid surface through an enzyme-linked reagent.

Test [3] relates to β6-ERK2 interaction. In words: ERK2 peptide competition ELISA for β6-ERK2 binding. Conditions: increasing concentrations incubated with ERK2. On the procedure: To determine the β6-binding domain(s) of ERK2, a biotinylated β6 cytoplasmic tail peptide spanning the cytoplasmic tail of β6 was incubated with a soluble ERK2 peptide fragment in a total incubation volume of 20 μl phosphate buffered saline (PBS). The mixture was stood for 45 minutes at room temperature (RT). Soluble ERK2 in PBS was then added and the solution left for a further 30 minutes. Following incubation the reaction volume was made to 400 μl with carbonate buffer (0.015 M Na2CO3 and 0.035M NaHCO3 at pH 9.6) and 100 μl of this mixture added to each of 4 wells of a polystyrene ELISA plate (Nunc, Maxicorp). ERK2/peptides were allowed to attach to the plastic substrate for 18 to 20 hours at RT in the dark. After immobilisation the overlying buffer was flicked from the wells and excess solid surface blocked with casein (0.5% skim milk) in PBS for 60 minutes at RT. Wells were washed (×3) with was buffer (PBS plus 0.5% skim milk powder, 0.05% Tween-20) prior to incubation with the anti-β6 antibody SC-6632 (Santa Cruz) diluted 1:500 v/v in wash buffer (2 wells) or a control antibody (2 wells). Incubation with the primary antibody was carried out for 30 minutes at RT. […] Specific binding events were quantitatively determined using a colourimetric substrate system by measuring absorbency at […] (Bio-Rad, AP substrate kit). […]

The test system of test [4] is MAP kinase activity in WiDr wild-type cells. In words: MAP kinase assay, serum-stimulated WiDr cells. It counts as cell-based, human. The following applies: inhibitors 40 μM added one hour before serum, serum 30 min. On the procedure:
(§2) Cultures of WiDr and HT29 mock and antisense β6 transfectants were established by seeding 1×10^6 cells/5 ml of culture medium in 25 cm^2 tissue culture flasks. Cells were incubated at 37° C. in humidified CO2 for 24 hours before serum starvation in serum-free medium for the next 16 hours. Foetal calf serum was then added to a final concentration of 10% for 30 mins before MAP kinase assays were performed. […] The ability of cells to transfer phosphate from [γ^32P]-ATP to a synthetic peptide that contains specifically a p42/p44 MAP kinase phosphorylation site was measured as described in the manufacturer's instructions. [^32P]-labelled peptides were spotted onto PEI-cellulose paper, unbound radioactivity was washed with 75 mM phosphoric acid and bound [^32P]-labelled peptides were measured by liquid scintillation counting. Protein estimation was performed on each cell lysate used and enzyme activity calculated as described in the manufacturer's instructions. […]
(§3) The effect of MEK (MAP kinase) inhibitors UO126 and PD98059 on MAP kinase activity in WiDr and HT29 wild-type cells was tested in the absence/presence of serum. […] Serum was then added for 30 min and MAP kinase activity assessed before and after addition of serum. […]

In test [5] the test system is MAP kinase activity in HT29 wild-type cells. In words: MAP kinase assay, serum-stimulated HT29 cells. It counts as cell-based, human. The following applies: inhibitors 40 μM added one hour before serum, serum 30 min. The protocol:
as §2, §3

The test system of test [6] is gelatinase B secretion by SW480 β6 transfectants. Kind of test: Gelatinase B secretion, gelatin zymogram of tumour-conditioned medium. It is filed as cell-based, human. The following applies: 40 μM, serum-free, 48 hours, versus DMSO control. The protocol:
SW480 β6 transfectants were cultured under serum-free conditions for 48 hours in the absence/presence of the MEK inhibitor PD98059 (40 μM) or DMSO (vehicle control). Tumour-conditioned medium was assayed for gelatinase B by analysis of equal protein loads in a gelatin zymogram.

No end group written: not given here. *: point of attachment. Biotin = O=C1N[C@H]2[C@H](CS[C@H]2CCCCC(=O)*)N1

T1 sequence (P63085 whole entry): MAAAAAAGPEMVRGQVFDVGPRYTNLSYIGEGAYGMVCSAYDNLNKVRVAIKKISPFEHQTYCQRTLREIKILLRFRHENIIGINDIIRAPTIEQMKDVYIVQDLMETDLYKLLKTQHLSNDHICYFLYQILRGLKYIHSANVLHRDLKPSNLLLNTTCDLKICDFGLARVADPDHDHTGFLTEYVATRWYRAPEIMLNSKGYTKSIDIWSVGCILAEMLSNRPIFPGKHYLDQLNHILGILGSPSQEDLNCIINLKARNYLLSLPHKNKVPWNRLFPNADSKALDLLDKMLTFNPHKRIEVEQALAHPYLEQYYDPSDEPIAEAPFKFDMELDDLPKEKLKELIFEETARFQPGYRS
T2 sequence (P45983 whole entry, species assumed): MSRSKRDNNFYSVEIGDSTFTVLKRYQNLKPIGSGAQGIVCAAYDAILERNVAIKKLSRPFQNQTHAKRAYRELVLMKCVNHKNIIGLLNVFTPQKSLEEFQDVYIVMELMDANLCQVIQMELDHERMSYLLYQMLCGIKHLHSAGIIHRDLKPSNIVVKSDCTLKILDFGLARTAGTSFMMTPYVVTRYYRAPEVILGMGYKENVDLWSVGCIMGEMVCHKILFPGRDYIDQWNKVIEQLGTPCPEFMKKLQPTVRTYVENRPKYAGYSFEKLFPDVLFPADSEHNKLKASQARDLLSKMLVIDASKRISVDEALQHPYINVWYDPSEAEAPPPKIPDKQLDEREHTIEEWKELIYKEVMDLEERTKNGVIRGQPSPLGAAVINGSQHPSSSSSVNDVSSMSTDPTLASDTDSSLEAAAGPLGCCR

As to “RSKAKWQTGT (also: biotinylated, site not given here) [seq. 3, 10 mer test peptide of the β6 cytoplasmic tail]”, in test [1] (over a range of concentrations of the peptides, compared to fragment 2, FIG. 20), the “binding of GST.ERK2 to peptide” value is listed as “substantially less than that observed for seq. 4”.

Regarding “RSKAKWQTGTNPLYRGSTST (Biotin-RSKAKWQTGTNPLYRGSTST) [fragment 2, biotinylated peptide of the β6 cytoplasmic tail]”, the “binding of non-phosphorylated GST.ERK2 to peptide” value in test [1] (GST.ERK2 0.25 μg/100 μl, peptide 1 μg/100 μl, FIG. 17) is “significant binding”. Also, the “binding of non-phosphorylated ERK2 to peptide” value in test [1] was “Significant binding”. “β6 cytoplasmic tail peptide: peptide spanning the 52 amino acid long β6 cytoplasmic tail (HDRKEVAKFEAERSKAKWQTGTNPLYRGSTSTFKNVTYKHREKQKVDLSTDS)”: the “binding of non-phosphorylated ERK2 to peptide” value in test [1] is “Significant binding”. In addition, the “binding of JNK-1 to peptide” value in test [2] is “Significant binding”. Further, in test [3], the “concentration at which maximal β6 bound to ERK was detected” value turned out to be 0.25 µM. Regarding “RSRARYEMASNPLYR [β5, 15-mer peptide of the β5 cytoplasmic domain]”, in test [1], the “binding of peptide to ERK2” value is “Dose-dependant binding”; the “binding of ERK2 to integrin subunit peptides” value was “Binding of ERK2 to the β5 and β3 peptides was also found”. As to “KFEKEKMNAKWDTGENPIYK [β1, peptide of the β1 cytoplasmic domain]”, the “binding of peptide to ERK2” value in test [1] was “failed to bind ERK2”. On to “RSKAK (also: biotinylated, site not given here) [5 mer peptide]”, for which the “binding of ERK2 to peptide” value in test [1] is listed as “Negligible binding”. On to `COc1cccc(-c2cc(=O)c3ccccc3o2)c1N` [PD98059], for which the “serum-stimulated MAP kinase activity” value in test [4] and in test [5] was “inhibitable” each time. In addition, the “gelatinase B secretion” value in test [6] was “reduced gelatinase B secretion compared with controls”. Take RSKAKNPLYR [10(4), 4 is omitted]: in test [1], the “binding of ERK2 to peptide” value is recorded as “Comparable binding of ERK2 to seq. 4”. “RARAKWDTANNPLYK [β3, peptide of the β3 cytoplasmic domain]”: the “binding of ERK2 to integrin subunit peptides” value in test [1] was “Binding of ERK2 to the β5 and β3 peptides was also found”.
